Measured values reported in patent US20210009673A1, “METHODS FOR REGULATING BREAST CANCERS” (priority 2018, published 2021).

Key:
β-catenin [1] = assay: β-catenin import into nuclei of HUVS cells (Western blot of nuclear extracts); type: cell-based, human
Description: FIG. 13: FIG. 13 illustrates: (A) human umbilical vein stromal cells not stimulated or stimulated for 60 minutes with 1, 10, 25, 50, 100 and 200 ng/ml of PTN were used to isolate their nuclei and prepare lysates that were analyzed in Western blots probed with anti-β-catenin antibodies (upper panel) and anti-Orc-2 antibodies (lower panel). In (B), human umbilical vein stromal cells not stimulated or stimulated with 100 ng/ml of PTN for 5, 15, 30, 60 minutes were used to isolate their nuclei and prepare lysates that were analyzed in Western blots probed with anti-β-catenin antibodies (upper panel) and anti-Orc-2 antibodies (lower panel).
Cells at confluence were washed with PBS ×2 and incubated for 10 minutes in a lysis buffer containing 100 mM HEPES pH 7.9, 100 mM KCl, […], 1 mM DTT, Complete EDTA-free Protease Inhibitor Cocktail (Roche, Indianapolis, Ind.) and 0.04% IGEPAL (Sigma-Aldrich Co. Ltd, Poole, Dorset, UK). […] Samples were centrifuged and the supernatant nuclear extract was collected and analyzed in Western-blots as described below. […] It was detected with anti-Orc2 antibodies; tubulin was used to mark cytosolic fractions and detected with anti-tubulin antibodies. Samples of the nuclear fractions were used only if tubulin was not detected. […]

β-catenin [2] = assay: phosphorylation of serines 33, 37 and threonine 41 in β-catenin in HUVS cells; type: cell-based, human; conditions: 2 minutes after PTN
Description: FIG. 11: FIG. 11 illustrates: human umbilical vein stromal cells not stimulated or stimulated with 50 ng/ml of PTN for 2, 5, 10 or 20 minutes were used to prepare cell lysates that were analyzed in Western blots probed with anti-phospho threonine 308 Akt (panel A), anti-phospho serine 473 Akt (panel B), anti-phospho-serine 9 GSK3β (panel C), anti-phospho-serine 33, 37 and […] β-catenin (panel D) or anti-actin antibodies (panel E). Akt was immunoprecipitated from those lysates using anti-Akt antibodies, incubated with a fusion peptide containing the 20 N-terminal amino acids of GSK3β and analyzed in Western-blots probed using anti-phospho-serine 9 GSK3β antibodies (panel F).
A key function of activated GSK3β in the pathway of β-catenin translocation into the nuclei is to phosphorylate β-catenin serines 33, 37 and threonine 41. […] The levels of phosphorylation of serine 33, 37 and threonine 41 in β-catenin were therefore measured in Western blots of lysates from PTN-stimulated cells probed with anti-β-catenin antibodies that recognize phosphoserines 33, 37 and threonine 41. […] In the control study, β-catenin phosphorylated in serines 33, 37 and threonine 41 was readily detected when the cells are not stimulated with PTN. […]

B1: pleiotrophin (protein, UniProt P21246 33-168, looked up)
Pleiotrophin: GKKEKPEKKVKKSDCGEWQWSVCVPTSGDCGLGTREGTRTGAECKQTMKTQRCKIPCNWKKQFGAECKYQFQAWGECDLNTALKTRTGSLKRALHNAECQKTVTISKPCGKLTKPKPQAESKKKKKEGKKQEKMLD
β-catenin in nuclei (β-catenin [1]; 1-200 ng/ml PTN, 5-60 minutes): concentration and time-dependent increase
PTN concentration at which increase in nuclear β-catenin was seen (β-catenin [1]; 60 minutes): 10 ng/mL
phosphorylation of serines 33, 37 and threonine 41 in β-catenin (β-catenin [2]): sharply decreased
